The target of assay [1] is TRCF-β (β domain of Thermus thermophilus HB8 transcription-repair coupling factor, His-tagged) (Thermus thermophilus HB8). Kind of assay: SPR (BIAcore), His-tagged β domain immobilised on Ni-NTA sensor chip, UvrA injected, with ATP (+ ATP). On the technique in general: In SPR one partner is held on a chip, and binding of the other changes the refractive index at the surface.

Assay [2] shares this target. Kind of assay: SPR (BIAcore), His-tagged β domain immobilised on Ni-NTA sensor chip, UvrA injected, without ATP (- ATP).
For assay [3], the target named is UvrA. Kind of assay: SPR (BIAcore), His-tagged β domain immobilised on Ni-NTA sensor chip, UvrA in solution, with ATP.
Chain of UvrA (Q56242 whole entry): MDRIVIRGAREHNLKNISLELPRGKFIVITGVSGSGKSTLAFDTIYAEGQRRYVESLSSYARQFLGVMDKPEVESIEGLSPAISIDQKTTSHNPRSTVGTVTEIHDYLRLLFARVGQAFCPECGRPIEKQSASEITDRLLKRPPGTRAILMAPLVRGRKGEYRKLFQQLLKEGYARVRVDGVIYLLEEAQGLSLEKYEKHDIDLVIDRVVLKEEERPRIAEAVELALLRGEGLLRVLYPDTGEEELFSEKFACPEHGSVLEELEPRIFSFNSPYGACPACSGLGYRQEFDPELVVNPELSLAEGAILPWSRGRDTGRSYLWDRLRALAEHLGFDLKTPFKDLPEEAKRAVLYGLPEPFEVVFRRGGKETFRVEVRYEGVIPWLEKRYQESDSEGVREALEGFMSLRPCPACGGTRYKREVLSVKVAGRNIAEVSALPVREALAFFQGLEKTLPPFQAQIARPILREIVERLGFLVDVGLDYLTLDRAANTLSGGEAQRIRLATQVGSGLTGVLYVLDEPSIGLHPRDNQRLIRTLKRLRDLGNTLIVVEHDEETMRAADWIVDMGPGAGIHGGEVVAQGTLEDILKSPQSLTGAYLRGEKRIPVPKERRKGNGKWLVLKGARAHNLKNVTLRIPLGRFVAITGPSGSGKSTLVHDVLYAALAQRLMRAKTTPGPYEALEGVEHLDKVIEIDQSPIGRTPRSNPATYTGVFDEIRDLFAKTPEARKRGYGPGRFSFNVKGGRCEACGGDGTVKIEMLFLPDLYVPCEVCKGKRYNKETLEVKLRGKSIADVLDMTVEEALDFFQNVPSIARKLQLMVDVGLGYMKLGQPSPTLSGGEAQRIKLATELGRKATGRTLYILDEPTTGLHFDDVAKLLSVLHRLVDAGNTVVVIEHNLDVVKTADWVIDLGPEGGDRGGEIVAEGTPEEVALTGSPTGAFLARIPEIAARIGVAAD
Assay [4] deals with UvrA. Kind of assay: SPR (BIAcore), His-tagged β domain immobilised on Ni-NTA sensor chip, UvrA in solution, without ATP.

Chain of UvrA (enzyme) (Q56242 whole entry): as above

Take UvrA (enzyme): the koff was 0.07 s⁻¹ in assay [1] and 0.13 s⁻¹ in assay [2]. Also, the kon came out at 150000 M⁻¹ s⁻¹ in assay [1] and 100000 M⁻¹ s⁻¹ in assay [2].

Take “TRCF-β (β domain of Thermus thermophilus HB8 transcription-repair coupling factor, His-tagged) (enzyme)”: the Kd in the assay with UvrA [3] was found to be 500 nM; with UvrA [4] it was 1300 nM.

As usually defined, the koff is the first-order rate constant of dissociation. Read a low koff as slow dissociation. A word on the kon: it is the rate constant with which the complex forms. Low readings indicate slow association, high ones fast association. Broadly, the Kd is the equilibrium constant for the complex coming apart. Higher therefore signals lower affinity.

These data come from patent publication US20030008291A1.
